Reference: patent US7799901B2, “Modulators of the function of FAS receptors and other proteins” (Yeda Research and Development Co. Ltd., priority 1995, dated 2010)

B1: MACHβ1: MACH isoform, cDNA SEQ ID NO: 4, amino acid SEQ ID NO: 5; lacks the CED3/ICE homology region (protein)
chain: MDFSRNLYDIGEQLDSEDLASLKFLSLDYIPQRKQEPIKDALMLFQRLQEKRMLEESNLSFLKELLFRINRLDLLITYLNTRKEEMERELQTPGRAQISAYRVMLYQISEEVSRSELRSFKFLLQEEISKCKLDDDMNLLDIFIEMEKRVILGEGKLDILKRVCAQINKSLLKIINDYEEFSKERSSSLEGSPDEFSNDFGQSLPNEKQTSGILSDHQQSQFCKSTGESAQTSQH
B2: MACHα1 (C360S): MACHα1 mutant in which the catalytic cysteine Cys360 is replaced by Ser (protein)
chain: MDFSRNLYDIGEQLDSEDLASLKFLSLDYIPQRKQEPIKDALMLFQRLQEKRMLEESNLSFLKELLFRINRLDLLITYLNTRKEEMERELQTPGRAQISAYRVMLYQISEEVSRSELRSFKFLLQEEISKCKLDDDMNLLDIFIEMEKRVILGEGKLDILKRVCAQINKSLLKIINDYEEFSKERSSSLEGSPDEFSNGEELCGVMTISDSPREQDSESQTLDKVYQMKSKPRGYCLIINNHNFAKAREKVPKLHSIRDRNGTHLDAGALTTTFEELHFEIKPHDDCTVEQIYEILKIYQLMDHSNMDCFICCILSHGDKGIIYGTDGQEAPIYELTSQFTGLKCPSLAGKPKVFFIQASQGDNYQKGIPVETDSEEQPYLEMDLSSPQTRYIPDEADFLLGMATVNNCVSYRNPAEGTWYIQSLCQSLRERCPRGDDILTILTEVNYEVSNKDDKKNMGKQMPQPTFTLRKKLVFPSD

Columns and labels:
[1] = molecular target: T1, GST-MORT-1 fusion protein (Homo sapiens, UniProt Q13158); assay: In vitro binding to GST-MORT-1 on glutathione-agarose beads
T1 construct: made in house
T1 sequence (Q13158 1-208): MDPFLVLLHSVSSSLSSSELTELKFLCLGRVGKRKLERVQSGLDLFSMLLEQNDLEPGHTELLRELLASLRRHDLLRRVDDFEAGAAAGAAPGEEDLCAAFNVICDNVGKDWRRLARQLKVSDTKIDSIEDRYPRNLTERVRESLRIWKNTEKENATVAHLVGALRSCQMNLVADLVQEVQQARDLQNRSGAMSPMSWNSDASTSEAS
Description: It has been shown also to contribute to, though not to suffice in, the self association of MORT-1 (see Example 1). […] To further assess the involvement of the MORT modules in these interactions, deletion mutants of MACHβ1, fused with the FLAG octapeptide (FLAG-MACHβ1), were expressed in HeLa cells and assessed for their binding in vitro to bacterial-produced […] fusion protein (GST-MORT-1). […] FIGS. 9A and 9B show the results (autoradiograms) of the in vitro interaction of MACHβ1 and its deletion mutants with MORT-1. Briefly, 35 [S] metabolically labeled MACHβ1, MACHβ1 fused at its N-terminus to the FLAG octapeptide (FLAG-MACHβ1), C-terminus truncation mutants of FLAG-MACHβ1, and, as a control, luciferase, were produced in transfected HeLa cells. Expression was done using a tetracycline-controlled expression vector, in a HeLa cell clone (HtTA-1) that expresses a tetracycline-controlled transactivator.
The antibodies used are as follows: Rabbit anti-MACHβ1 and anti-MORT1 antisera were raised against GST-MACHβ1 and GST-MORT1 fusion proteins. Mouse monoclonal antibodies against the FLAG octapeptide (M2) and against FAS/APO1 (CH11, Yonehara et al, 1989) were purchased from Eastman Kodak and Oncor (Gaithersburg, Md.) respectively. […]

[2] = system: Fas/APO1 cytotoxicity (p55-Fas chimera) in 293-EBNA cells; format: cell-based, human; details: co-transfection
Protocol: In brief, 293-EBNA cells, MCF7 human breast carcinoma cells and HeLa HtTA-1 cells were grown in Dulbecco's modified Eagle's minimal essential medium supplemented with 10% fetal calf serum, nonessential amino acids, 100 U/ml penicillin and 100 μg/ml streptomycin. Cell tissue culture dishes (5×10^5 293-EBNA cells, 3×10^5 s MCF7 cells or 3×10^5 HeLa cells in 6-cm dishes) were transiently transfected, using the calcium phosphate precipitation method, with the cDNAs of the indicated proteins together with the β-galactosidase expression vector. In the experiments presented in FIGS. 14A-D and 15, each dish was transfected with 3.5 μg of the indicated MACH construct and 1.5 μg of pSV-β-gal. In the experiments presented in FIGS. 16A-D and 17-19, each dish was transfected with 2.5 μg of the indicated MACH or MORT1 construct (or, as control, empty vector) and 1.5 μg of pSV-β-gal. The cells were rinsed 6 to 10 h after transfection. The 293-EBNA and MCF7 cells were incubated for a further 18 h without additional treatment. […] The extent of cell death at the end of the incubation periods was assessed by determination of β-galactosidase expression, as described by Kumar et al, 1994. […]
In particular, FIGS. 16A-D show morphology of 293-EBNA cells in which cell death was induced by transient expression of a chimera comprised of the extracellular domain of the p55-R (amino acids 1-168) fused to the transmembrane and intracellular domains of Fas/APO1 (amino acids 153-319) (p55-Fas chimera) (FIGS. 16A and 16B), or by expression of the p55-R (FIGS. 16C and 16D), and of cells that were protected from these cytotoxic effects by their simultaneous transfection with MACHα1 (C360S) (FIGS. 16B and 16D). […] FIG. 17 illustrates the quantification of death induced in 293-EBNA cells by their transfection with p55-Fas chimera or with p55-R, together with an empty vector, a MORT1 deletion mutant lacking the MACH-binding region (MORT1 (92-208)), or MACHα molecules containing a nonfunctional CED3/ICE region. […] Data are from at least two independent experiments and are expressed as in FIGS. 14A-F and 15.

Molecule | in vitro binding to GST-MORT-1 fusion protein [1] | protection against Fas/APO1 cytotoxicity (p55-Fas chimera) [2]
B1 | able to bind | 
B2 |  | protected
